Experimental data taken from US20150274826A1 (ARCH ONCOLOGY, published 2015).
Where a chain is given by its changes, count along the chain named. Names and notes keep the numbering of the source.

T1: mouse CD47 (mouse, UniProt Q61735 19-303)
T1 construct: whole, on cells; also called CD47 on mouse RBCs; CD47 on 4T1 cells
T1 sequence (looked up): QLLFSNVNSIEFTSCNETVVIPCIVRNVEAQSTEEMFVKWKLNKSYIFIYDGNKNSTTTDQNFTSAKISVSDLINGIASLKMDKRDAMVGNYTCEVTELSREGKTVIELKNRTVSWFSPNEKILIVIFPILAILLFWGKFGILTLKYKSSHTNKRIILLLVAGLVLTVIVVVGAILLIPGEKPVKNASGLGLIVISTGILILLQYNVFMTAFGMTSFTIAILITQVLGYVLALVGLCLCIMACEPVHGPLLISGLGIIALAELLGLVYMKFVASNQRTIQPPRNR

B1: Clone 14.1 (hum14 IgG1 N297Q) (antibody)
heavy: QVQLQESGPGLVKPSQTLSLTCTVSGYTFTNYYVFWVRQARGQRLEWIGDINPVNGDTNFNEKFKNRVTISADKSISTAYLQWSSLKASDTAMYYCARGGYTMDYWGQGTLVTVSSASTKGPSVFPLAPSSKSTSGGTAALGCLVKDYFPEPVTVSWNSGALTSGVHTFPAVLQSSGLYSLSSVVTVPSSSLGTQTYICNVNHKPSNTKVDKKVEPKSCDKTHTCPPCPAPELLGGPSVFLFPPKPKDTLMISRTPEVTCVVVDVSHEDPEVKFNWYVDGVEVHNAKTKPREEQYQSTYRVVSVLTVLHQDWLNGKEYKCKVSNKALPAPIEKTISKAKGQPREPQVYTLPPSR
light: DVVMTQSPLSLPVTLGQPASISCRSSQSLVHSNGNTYLHWYQQKPGKAPKLLIYKVSYRFSGVPDRFSGSGSGTDFTLKISRVEAEDVGVYYCSQNTHVPRTFGQGTKVEIKRTVAAPSVFIFPPSDEQLKSGTASVVCLLNNFYPREAKVQWKVDNALQSGNSQESVTEQDSKDSTYSLSSTLTLSKADYEKHKVYACEVTHQGLSSPVTKSFNRGEC
notes: IgG1 N297Q
B2: Clone 13.2 (hum 13 IgG4 S228P L235E) (antibody)
heavy: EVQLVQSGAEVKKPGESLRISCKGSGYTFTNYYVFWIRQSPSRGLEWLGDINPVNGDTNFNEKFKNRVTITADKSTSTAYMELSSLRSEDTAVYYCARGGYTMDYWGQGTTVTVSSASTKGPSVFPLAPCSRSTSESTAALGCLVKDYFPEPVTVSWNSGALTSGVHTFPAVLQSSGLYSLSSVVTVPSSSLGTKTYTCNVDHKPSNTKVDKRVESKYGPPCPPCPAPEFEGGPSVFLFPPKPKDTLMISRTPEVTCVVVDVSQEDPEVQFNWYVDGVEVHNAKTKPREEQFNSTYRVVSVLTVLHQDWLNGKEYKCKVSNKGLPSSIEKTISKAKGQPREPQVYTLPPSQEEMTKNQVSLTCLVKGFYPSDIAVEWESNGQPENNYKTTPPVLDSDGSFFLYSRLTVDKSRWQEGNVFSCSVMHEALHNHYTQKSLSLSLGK
light: B1 light with V2I, S7T, L15P, Q17E
notes: IgG4 S228P L235E version of Clone 13
B3: Clone 5.1 (hum05 IgG1 N297Q) (antibody)
heavy: QVQLQESGPGLVKPSQTLSLTCTVSGYTFTNYYVFWVRQAPGKGLEWVSDINPVNGDTNFNEKFKNRVTISVDTSKNQFSLKLSSVTAADTAVYYCARGGYTMDYWGQGTLVTVSSASTKGPSVFPLAPSSKSTSGGTAALGCLVKDYFPEPVTVSWNSGALTSGVHTFPAVLQSSGLYSLSSVVTVPSSSLGTQTYICNVNHKPSNTKVDKKVEPKSCDKTHTCPPCPAPELLGGPSVFLFPPKPKDTLMISRTPEVTCVVVDVSHEDPEVKFNWYVDGVEVHNAKTKPREEQYQSTYRVVSVLTVLHQDWLNGKEYKCKVSNKALPAPIEKTISKAKGQPREPQVYTLPPSR
light: B1 light with V2I, S7T, L15P, Q17E, Q42L, K47Q, A48S, K50Q
notes: IgG1 N297Q
B4: Clone 5.2 (hum05 IgG4 S228P L235E) (antibody)
heavy: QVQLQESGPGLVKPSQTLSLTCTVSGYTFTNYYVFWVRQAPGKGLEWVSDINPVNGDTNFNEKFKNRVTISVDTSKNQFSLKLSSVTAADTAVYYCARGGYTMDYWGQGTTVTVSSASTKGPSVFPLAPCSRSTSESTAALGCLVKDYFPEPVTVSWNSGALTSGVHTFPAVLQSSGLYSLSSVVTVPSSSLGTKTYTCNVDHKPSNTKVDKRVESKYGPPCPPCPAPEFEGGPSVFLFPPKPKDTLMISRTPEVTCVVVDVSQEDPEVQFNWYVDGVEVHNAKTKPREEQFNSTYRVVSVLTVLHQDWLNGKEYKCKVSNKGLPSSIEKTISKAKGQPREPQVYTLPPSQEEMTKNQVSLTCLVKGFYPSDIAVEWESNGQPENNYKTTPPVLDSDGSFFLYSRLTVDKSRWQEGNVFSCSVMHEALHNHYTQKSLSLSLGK
light: B1 light with V2I, S7T, L15P, Q17E, Q42L, K47Q, A48S, K50Q
notes: IgG4 S228P L235E
B5: Clone 1.2 (hum01 IgG4 S228P L235E) (antibody)
heavy: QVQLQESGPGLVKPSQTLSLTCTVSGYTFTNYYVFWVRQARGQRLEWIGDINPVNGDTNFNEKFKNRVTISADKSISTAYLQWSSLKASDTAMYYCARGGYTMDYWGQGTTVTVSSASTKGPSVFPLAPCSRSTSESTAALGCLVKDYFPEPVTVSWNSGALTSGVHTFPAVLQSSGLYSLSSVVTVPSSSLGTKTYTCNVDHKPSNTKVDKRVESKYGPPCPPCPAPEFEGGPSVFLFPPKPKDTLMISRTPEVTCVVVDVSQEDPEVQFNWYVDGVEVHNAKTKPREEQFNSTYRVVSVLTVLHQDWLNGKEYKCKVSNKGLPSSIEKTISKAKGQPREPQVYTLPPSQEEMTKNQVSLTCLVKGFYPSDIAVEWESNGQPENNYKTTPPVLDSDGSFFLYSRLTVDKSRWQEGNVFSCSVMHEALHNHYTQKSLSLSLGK
light: B1 light with V2I, S7T, L15P, Q17E
notes: IgG4 S228P L235E version of Clone 1; also called pVxK7b-037-hum01-HC-IgG4 S228P L235E-Pro
B6: Clone 8.1 (hum08 IgG1 N297Q) (antibody)
heavy: QITLKESGPTLVKPTQTLTLTCTFSGYTFTNYYVFWIRQSPSRGLEWLGDINPVNGDTNFNEKFKNRFTISRDNAKNSLYLQMNSLRAEDTAVYYCARGGYTMDYWGQGTLVTVSSASTKGPSVFPLAPSSKSTSGGTAALGCLVKDYFPEPVTVSWNSGALTSGVHTFPAVLQSSGLYSLSSVVTVPSSSLGTQTYICNVNHKPSNTKVDKKVEPKSCDKTHTCPPCPAPELLGGPSVFLFPPKPKDTLMISRTPEVTCVVVDVSHEDPEVKFNWYVDGVEVHNAKTKPREEQYQSTYRVVSVLTVLHQDWLNGKEYKCKVSNKALPAPIEKTISKAKGQPREPQVYTLPPSR
light: B1 light with V2I, S7T, L15P, Q17E
notes: IgG1 N297Q
B7: Clone 3.2 (hum03 IgG4 S228P L235E) (antibody)
heavy: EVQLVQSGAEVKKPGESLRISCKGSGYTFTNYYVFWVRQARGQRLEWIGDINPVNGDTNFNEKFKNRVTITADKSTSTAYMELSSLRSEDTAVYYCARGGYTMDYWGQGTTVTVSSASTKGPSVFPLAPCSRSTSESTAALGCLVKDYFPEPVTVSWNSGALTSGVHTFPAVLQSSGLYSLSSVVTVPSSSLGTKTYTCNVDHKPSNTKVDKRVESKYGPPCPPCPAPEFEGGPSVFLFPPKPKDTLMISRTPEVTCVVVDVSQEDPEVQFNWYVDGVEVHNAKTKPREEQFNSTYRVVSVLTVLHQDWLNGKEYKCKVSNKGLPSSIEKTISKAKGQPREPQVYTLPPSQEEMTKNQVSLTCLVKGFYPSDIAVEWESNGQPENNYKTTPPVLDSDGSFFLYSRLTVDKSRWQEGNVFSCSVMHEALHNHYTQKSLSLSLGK
light: B1 light
notes: IgG4 S228P L235E
B8: Clone 14.2 (hum14 IgG4 S228P L235E) (antibody)
heavy: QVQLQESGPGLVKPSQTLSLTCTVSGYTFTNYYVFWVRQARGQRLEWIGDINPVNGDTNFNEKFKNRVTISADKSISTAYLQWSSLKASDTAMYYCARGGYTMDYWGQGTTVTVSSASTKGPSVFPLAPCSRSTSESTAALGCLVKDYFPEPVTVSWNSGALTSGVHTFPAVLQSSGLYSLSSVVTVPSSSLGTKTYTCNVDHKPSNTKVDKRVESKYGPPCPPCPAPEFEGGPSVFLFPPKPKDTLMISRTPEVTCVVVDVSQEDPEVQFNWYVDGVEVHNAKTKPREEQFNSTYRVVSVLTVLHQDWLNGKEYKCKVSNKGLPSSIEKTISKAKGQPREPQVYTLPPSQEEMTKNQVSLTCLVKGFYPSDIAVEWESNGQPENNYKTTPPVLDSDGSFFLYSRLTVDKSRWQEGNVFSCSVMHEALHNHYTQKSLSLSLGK
light: B1 light
notes: IgG4 S228P L235E
B9: Clone 3.1 (hum03 IgG1 N297Q) (antibody)
heavy: EVQLVQSGAEVKKPGESLRISCKGSGYTFTNYYVFWVRQARGQRLEWIGDINPVNGDTNFNEKFKNRVTITADKSTSTAYMELSSLRSEDTAVYYCARGGYTMDYWGQGTLVTVSSASTKGPSVFPLAPSSKSTSGGTAALGCLVKDYFPEPVTVSWNSGALTSGVHTFPAVLQSSGLYSLSSVVTVPSSSLGTQTYICNVNHKPSNTKVDKKVEPKSCDKTHTCPPCPAPELLGGPSVFLFPPKPKDTLMISRTPEVTCVVVDVSHEDPEVKFNWYVDGVEVHNAKTKPREEQYQSTYRVVSVLTVLHQDWLNGKEYKCKVSNKALPAPIEKTISKAKGQPREPQVYTLPPSR
light: B1 light
notes: IgG1 N297Q

target: T1, mouse CD47; assay: cell-based ELISA on mouse 4T1 cells, apparent Kd
Protocol: (§1) OV10 cells are grown in IMDM medium containing 10% heat inactivated fetal bovine serum (BioWest; S01520) and 4T1 cells are grown in RMPI medium containing 10% heat inactivated fetal bovine serum (BioWest; S01520). One day before assay, 3×10⁴ cells are plated in 96 well cell bind plates (Corning #3300, VWR #66025-626) so that they are 95-100% confluent at the time of assay. Cells are washed and various concentrations of purified antibodies added in either IMDM or RPMI at 37° C. for 1 hour in […]. Cells are then washed with media and incubated for an additional hour at 37° C. with HRP labeled secondary anti-human antibody (Promega) diluted 1/2500 in media. Cells are washed three times with PBS, and the peroxidase substrate 3,3′,5,5′-tetramethylbenzidine is added (Sigma; Catalog #T4444). Reactions are terminated by the addition of HCl to 0.7N, and absorbance at 450 nm is determined using a Tecan model Infinite M200 plate reader. The apparent binding affinities of these clones to human and mouse cells is determined by non-linear fits (Prism GraphPad software). […] Agglutination of human RBCs is assessed following incubation of human RBCs with various concentrations of humanized blocking only clones. Blood is diluted (1:50) and washed 3 times with PBS/EDTA/BSA. RBCs are added to U-bottomed 96 well plates with equal volumes of the antibodies (75 μl) and incubated for 3 hrs at 37° C. and overnight at 4° C.

Kd [nM]	Binder
0.0949	B1
0.178	B2
0.112	B3
0.172	B4
0.175	B5
0.205	B6
0.202	B7
0.102	B8
0.132	B9

target: T2, human CD47 (human, UniProt Q08722 19-323); assay: cell-based ELISA on human OV10 cells, apparent Kd
T2 construct: whole, on cells; also called CD47 on human RBCs; CD47 on OV10 cells
Protocol: as §1

T2 sequence (Q08722 19-323): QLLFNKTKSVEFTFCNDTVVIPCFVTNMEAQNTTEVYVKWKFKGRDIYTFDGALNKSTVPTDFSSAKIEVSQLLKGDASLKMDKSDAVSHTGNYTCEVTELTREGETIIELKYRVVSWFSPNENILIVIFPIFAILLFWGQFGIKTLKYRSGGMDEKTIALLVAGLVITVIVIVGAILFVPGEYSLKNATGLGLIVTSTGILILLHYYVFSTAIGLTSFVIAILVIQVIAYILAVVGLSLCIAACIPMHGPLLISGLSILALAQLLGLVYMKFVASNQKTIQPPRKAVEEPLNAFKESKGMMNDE

Kd [nM]	Binder
0.0962	B1
0.108	B2
0.125	B3
0.107	B4
0.15	B5
0.115	B6
0.129	B7
0.0899	B8
0.115	B9
